Laboratory results as given in PMC4881948, “X-Ray Solution Scattering Study of Four Escherichia coli Enzymes Involved in Stationary-Phase Metabolism” (PLoS ONE, 2016).

Assays:
[1] = target: the molecule itself; assay: SAXS; solution scattering of the single protein, standard 50 mM Tris pH 7.5 buffer, 10°C, four concentrations 1.4-10.8 mg/ml; GadA stored in 100 mM Na-acetate, 10 mM NaCl, 1 mM DTT pH 4.6 and raised to pH 7.5 immediately before; oligomers from molecular mass, rigid-body modelling and OLIGOMER fits
[2] = target: the molecule itself; assay: SEC + AUC; GadA at pH 7.5: Tris-HCl, 10 mM NaCl, 1 mM DTT pH 7.5; SEC on Superdex 200 10/300 GL, load 5 mg/ml; sedimentation velocity at 20°C, 0.4 mg/ml
[3] = target: the molecule itself; assay: SEC + AUC; GadA at pH 4.6: 100 mM Na-acetate, 10 mM NaCl, 1 mM DTT pH 4.6; SEC on Superdex 200 10/300 GL, load 5 mg/ml; sedimentation velocity at 20°C, 0.4 mg/ml

Protein | stoichiometry N [1] | stoichiometry N [2] | stoichiometry N [3]
Class I fructose-1,6-bisphosphate aldolase (FbaB) from E. coli (enzyme, UniProt P0A991 1-350, looked up, Class I fructose bisphosphate aldolase FbaB, E. coli, UniProt A0A037Y4V8; 350 amino acids, calculated monomer 38.1 kDa; Decamer in solution by SAXS; also called Class I Fba; copies: 10) MTDIAQLLGKDADNLLQHRCMTIPSDQLYLPGHDYVDRVMIDNNRPPAVLRNMQTLYNTGRLAGTGYLSILPVDQGVEHSAGASFAANPLYFDPKNIVELAIEAGCNCVASTYGVLASVSRRYAHRIPFLVKLNHNETLSYPNTYDQTLYASVEQAFNMGAVAVGATIYFGSEESRRQIEEISAAFERAHELGMVTVLWAYLRNSAFKKDGVDYHVSADLTGQANHLAATIGADIVKQKMAENNGGYKAINYGYTDDRVYSKLTSENPIDLVRYQLANCYMGRAGLINSGGAAGGETDLSDAVRTAVINKRAGGMGLILGRKAFKKSMADGVKLINAVQDVYLDSKITIA | 10 | – | –
inorganic pyrophosphatase (PPase) from E. coli (enzyme, inorganic pyrophosphatase, E. coli; Hexamer in solution by SAXS) SLLNVPAGKDLPEDIYVVIEIPANADPIKYEIDKESGALFVDRFMSTAMFYPCNYGYINHTLSLDGDPVDVLVPTPYPLQPGSVIRCRPVGVLKMTDEAGEDAKLVAVPHSKLSKEYDHIKDVNDLPELLKAQIAHFFEHYKDLEKGKWVKVEGWENAEAAKAEIVASFERAKNK | 6 | – | –
glutamate decarboxylase (GadA) from E. coli (enzyme, glutamate decarboxylase GadA, E. coli; Hexamer at pH 4.6, mixture of hexamers and dimers at pH 7.5; also called GadA low-salt) MDQKLLTDFRSELLDSRFGAKAISTIAESKRFPLHEMRDDVAFQIINDELYLDGNARQNLATFCQTWDDENVHKLMDLSINKNWIDKEEYPQSAAIDLRCVNMVADLWHAPAPKNGQAVGTNTIGSSEACMLGGMAMKWRWRKRMEAAGKPTDKPNLVCGPVQICWHKFARYWDVELREIPMRPGQLFMDPKRMIEACDENTIGVVPTFGVTYTGNYEFPQPLHDALDKFQADTGIDIDMHIDAASGGFLAPFVAPDIVWDFRLPRVKSISASGHKFGLAPLGCGWVIWRDEEALPQELVFNVDYLGGQIGTFAINFSRPAGQVIAQYYEFLRLGREGYTKVQNASYQVAAYLADEIAKLGPYEFICTGRPDEGIPAVCFKLKDGEDPGYTLYDLSERLRLRGWQVPAFTLGGEATDIVVMRIMCRRGFEMDFAELLLEDYKASLKYLSDHPKLQGIAQQNSFKHT | – | 2 | 6
